Assay results taken from patent US20240228660A1 (IP2IPO INNOVATIONS, published 2024).
Numbering of substitutions follows the chain as printed. Like-named read-outs stand apart in the source and are kept apart here. Blank lines part the entries; values can stand above or below the binder they belong to.

Experiments:
human full-length VWF [1] = biological target: T1, human full-length VWF (human, UniProt P04275 764-2813); experiment: SPR, Biacore T200, antibody captured on Protein A, full-length VWF as analyte, single-cycle kinetics
Description: (§1) Antibodies were captured on Protein A sensor chip. The system was purged using running buffer (10 mM HEPES pH 7.4, 300 mM NaCl, 3 mM EDTA, 0.05% P20) and a series S Protein A chip was docked in the Biacore T200. The surface was conditioned with 10 mM glycine-HCl pH 1.5 regeneration solution (3 injections). Each antibody was diluted to ˜0.8 μg/ml in running buffer to capture ˜350 RU on flow cells 2, 3 and 4 (flow cell 1 used as in-line reference cell). Single-cycle kinetic analysis of human full-length VWF binding to antibodies was performed using the following parameters:

human full-length VWF [2] = biological target: T1, human full-length VWF; experiment: as above; remark: listed apart in the source
Description: as §1

- Kd (human full-length VWF [1]): 0.00707 nM
- koff (human full-length VWF [1]): 1.81e-07 s⁻¹
- kon (human full-length VWF [1]): 25600 M⁻¹ s⁻¹
B1: 1-A2_VH-par_L1 (antibody, human IgG1, kappa, V domains shown)
VH: SQSVEESGGRLVPPGTPLTLTCTVSGIDLTSNAMNWVRQAPGKGLEWIGGIYGHDTSYYAAWAKGRFTISRTSTTVDLKMTRPTTDDTATYFCARGFIYFDIWGTGTLVTISS
VL: DIQMTQSPSSLSASVGDRVTITCLASEDIYSGISWYQQKPGKAPKLLIYGASNLESGVPSRFSGSGSGTDYTLTISSLQPEDFATYYCLGGHSHSTTDLTFGGGTKVEIKT
notes: also called 1-A2_L1 (hIgG1K)

- Kd (human full-length VWF [1]): 0.0125 nM
- koff (human full-length VWF [1]): 5.66e-07 s⁻¹
- kon (human full-length VWF [1]): 45200 M⁻¹ s⁻¹
B2: 4-H3_H8_L0 (antibody, human IgG1, kappa, V domains shown)
VH: QQLVESGGGVVQPGRSLRLSCAASGIDLTSNAMNWVRQAPGKGLEWIGGIYGHDTSYYAAWAKGRFTISRDSNTVYLQMNSLRAEDTATYFCARGFIYFDIWGQGTLVTVSS
VL: B1 VL with Y30A, Y71F, H92Y, H94F, T96S, T97N, D98G
notes: humanised, human IgG1 kappa

- Kd (human full-length VWF [1]): 0.0969 nM
- koff (human full-length VWF [1]): 3.5e-06 s⁻¹
- kon (human full-length VWF [1]): 36100 M⁻¹ s⁻¹
B3: 1-A2_H2_L0 (antibody, human IgG1, kappa, V domains shown)
VH: B2 VH
VL: B1 VL with Y71F
notes: humanised, human IgG1 kappa

- Kd (human full-length VWF [1]): 0.0125 nM
- koff (human full-length VWF [1]): 7.44e-07 s⁻¹
- kon (human full-length VWF [1]): 59600 M⁻¹ s⁻¹
B4: 1-A2_VH-par_L0 (antibody, human IgG1, kappa, V domains shown)
VH: B1 VH
VL: B1 VL with Y71F
notes: also called 1-A2_L0 (hIgG1K)

- Kd (human full-length VWF [1]): 0.00143 nM
- koff (human full-length VWF [1]): 1.75e-08 s⁻¹
- kon (human full-length VWF [1]): 12300 M⁻¹ s⁻¹
B5: 4-H3_VH-par_L1 (antibody, human IgG1, kappa, V domains shown)
VH: B1 VH with V4L
VL: B1 VL with I2Y, Y30A, H92Y, H94F, T96S, T97N, D98G
notes: also called 4-H3_L1 (hIgG1K)

- Kd (human full-length VWF [1]): 0.0187 nM
- koff (human full-length VWF [1]): 6.54e-07 s⁻¹
- kon (human full-length VWF [1]): 34900 M⁻¹ s⁻¹
B6: 1-A2_H1_L0 (antibody, human IgG1, kappa, V domains shown)
VH: QVQLVESGGGVVQPGRSLRLSCAASGIDLTSNAMNWVRQAPGKGLEWVAGIYGHDTSYYAAWAKGRFTISRDNSKNTLYLQMNSLRAEDTAVYYCARGFIYFDIWGQGTLVTVSS
VL: B1 VL with Y71F
notes: humanised, human IgG1 kappa

- Kd (human full-length VWF [1]): 0.0173 nM
- koff (human full-length VWF [1]): 9.15e-07 s⁻¹
- kon (human full-length VWF [1]): 52800 M⁻¹ s⁻¹
B7: 4-H3_H8_L1 (antibody, human IgG1, kappa, V domains shown)
VH: B2 VH
VL: B1 VL with I2Y, Y30A, H92Y, H94F, T96S, T97N, D98G
notes: humanised, human IgG1 kappa

- Kd (human full-length VWF [1]): 0.00589 nM
- koff (human full-length VWF [1]): 1.4e-07 s⁻¹
- kon (human full-length VWF [1]): 23800 M⁻¹ s⁻¹
B8: 1-A2_H1_L1 (antibody, human IgG1, kappa, V domains shown)
VH: B6 VH
VL: B1 VL
notes: humanised, human IgG1 kappa

- Kd (human full-length VWF [1]): 0.0432 nM
- koff (human full-length VWF [1]): 2.73e-06 s⁻¹
- kon (human full-length VWF [1]): 63200 M⁻¹ s⁻¹
B9: 1-A2_H0_L1 (antibody, human IgG1, kappa, V domains shown)
VH: B6 VH with I27F, D28T, L29F, T30S
VL: B1 VL
notes: humanised, human IgG1 kappa

- Kd (human full-length VWF [1]): 0.00173 nM
- koff (human full-length VWF [1]): 8.46e-08 s⁻¹
- kon (human full-length VWF [1]): 48800 M⁻¹ s⁻¹
B10: 4-H3_VH-par_L0 (antibody, human IgG1, kappa, V domains shown)
VH: B1 VH with V4L
VL: B1 VL with Y30A, Y71F, H92Y, H94F, T96S, T97N, D98G
notes: also called 4-H3_L0 (hIgG1K)

- Kd (human full-length VWF [1]): 0.00203 nM
- koff (human full-length VWF [1]): 3.84e-08 s⁻¹
- kon (human full-length VWF [1]): 19000 M⁻¹ s⁻¹
B11: 1-A2_H2_L1 (antibody, human IgG1, kappa, V domains shown)
VH: B2 VH
VL: B1 VL
notes: humanised, human IgG1 kappa

- Kd (human full-length VWF [1]): 0.000231 nM
- koff (human full-length VWF [1]): 2.74e-08 s⁻¹
- kon (human full-length VWF [1]): 119000 M⁻¹ s⁻¹
B12: 1-A2_H0_L0 (antibody, human IgG1, kappa, V domains shown)
VH: B6 VH with I27F, D28T, L29F, T30S
VL: B1 VL with Y71F
notes: humanised, human IgG1 kappa

- Kd (human full-length VWF [1]): 0.000125 nM
B13: 1-A2_VH-par_VL-par (antibody, human IgG1, kappa)
heavy chain: not shown
light chain: AIEMTQTPPSLSASVGETVRIRCLASEDIYSGISWYQQKPGKPPTLLIYGASNLESGVPPRFSGSGSGTDYTLTIGGVQAEDAATYYCLGGHSHSTTDLTFGAGTKVEIKTVAAPSVFIFPPSDEQLKSGTASVVCLLNNFYPREAKVQWKVDNALQSGNSQESVTEQDSKDSTYSLSSTLTLSKADYEKHKVYACEVTHQGLSSPVTKSFNRGEC
notes: also called 1-A2_parental (hIgG1)

- Kd (human full-length VWF [1]): 0.0161 nM
- koff (human full-length VWF [1]): 4.34e-07 s⁻¹
- kon (human full-length VWF [1]): 26900 M⁻¹ s⁻¹
B14: 4-H3_H5_VL-par (antibody, human IgG1, kappa)
heavy chain: not shown
light chain: B13 light chain with I2Y, E3D, Y30A, H92Y, H94F, T96S, T97N, D98G
notes: also called 4-H3_H5 (hIgG1)

- Kd (human full-length VWF [2]): 0.0194 nM
- koff (human full-length VWF [2]): 1.75e-06 s⁻¹
- kon (human full-length VWF [2]): 90000 M⁻¹ s⁻¹
B15: 4-H3_H2_VL-par (antibody, human IgG1, kappa)
heavy chain: not shown
light chain: B13 light chain with I2Y, E3D, Y30A, H92Y, H94F, T96S, T97N, D98G
notes: also called 4-H3_H2 (hIgG1)

- Kd (human full-length VWF [2]): 0.00664 nM
- koff (human full-length VWF [2]): 1.87e-07 s⁻¹
- kon (human full-length VWF [2]): 28200 M⁻¹ s⁻¹
B16: 4-H3_H1_VL-par (antibody, human IgG1, kappa)
heavy chain: not shown
light chain: B13 light chain with I2Y, E3D, Y30A, H92Y, H94F, T96S, T97N, D98G
notes: also called 4-H3_H1 (hIgG1)

- Kd (human full-length VWF [1]): 0.0238 nM
- koff (human full-length VWF [1]): 9.49e-07 s⁻¹
- kon (human full-length VWF [1]): 39800 M⁻¹ s⁻¹
B17: 1-A2_H1_VL-par (antibody, human IgG1, kappa, V domains shown)
VH: B6 VH
VL: AIEMTQTPPSLSASVGETVRIRCLASEDIYSGISWYQQKPGKPPTLLIYGASNLESGVPPRFSGSGSGTDYTLTIGGVQAEDAATYYCLGGHSHSTTDLTFGAGTKVEIKT
notes: also called 1-A2_H1 (hIgG1)

- Kd (human full-length VWF [2]): 0.0131 nM
- koff (human full-length VWF [2]): 2.89e-07 s⁻¹
- kon (human full-length VWF [2]): 22100 M⁻¹ s⁻¹
B18: 4-H3_H0_VL-par (antibody, human IgG1, kappa, V domains shown)
VH: B6 VH with I27F, D28T, L29F, T30S
VL: B17 VL with I2Y, E3D, Y30A, H92Y, H94F, T96S, T97N, D98G
notes: also called 4-H3_H0 (hIgG1)

- Kd (human full-length VWF [1]): 0.0176 nM
- koff (human full-length VWF [1]): 6.18e-07 s⁻¹
- kon (human full-length VWF [1]): 35100 M⁻¹ s⁻¹
B19: 1-A2_H0_VL-par (antibody, human IgG1, kappa, V domains shown)
VH: B6 VH with I27F, D28T, L29F, T30S
VL: B17 VL
notes: also called 1-A2_H0 (hIgG1)

- Kd (human full-length VWF [1]): 0.0717 nM
B20: 4-H3_VH-par_VL-par (antibody, human IgG1, kappa)
heavy chain: not shown
light chain: B13 light chain with I2Y, E3D, Y30A, H92Y, H94F, T96S, T97N, D98G
notes: also called 4-H3_parental (hIgG1)

- Kd (human full-length VWF [2]): 0.0294 nM
- koff (human full-length VWF [2]): 1.59e-06 s⁻¹
- kon (human full-length VWF [2]): 54200 M⁻¹ s⁻¹
B21: 4-H3_H3_VL-par (antibody, human IgG1, kappa, V domains shown)
VH: B6 VH with V48I, A49G, L78V
VL: B17 VL with I2Y, E3D, Y30A, H92Y, H94F, T96S, T97N, D98G
notes: also called 4-H3_H3 (hIgG1)

- Kd (human full-length VWF [1]): 0.0104 nM
- koff (human full-length VWF [1]): 3.05e-07 s⁻¹
- kon (human full-length VWF [1]): 29300 M⁻¹ s⁻¹
B22: 4-H3_H7_VL-par (antibody, human IgG1, kappa, V domains shown)
VH: B6 VH with V48I, A49G, L78V, V92T, Y94F
VL: B17 VL with I2Y, E3D, Y30A, H92Y, H94F, T96S, T97N, D98G
notes: also called 4-H3_H7 (hIgG1)

- Kd (human full-length VWF [1]): 0.0109 nM
- koff (human full-length VWF [1]): 5.99e-07 s⁻¹
- kon (human full-length VWF [1]): 54900 M⁻¹ s⁻¹
B23: 4-H3_H8_VL-par (antibody, human IgG1, kappa, V domains shown)
VH: B2 VH
VL: B17 VL with I2Y, E3D, Y30A, H92Y, H94F, T96S, T97N, D98G
notes: also called 4-H3_H8 (hIgG1)

- Kd (human full-length VWF [1]): 0.00655 nM
- koff (human full-length VWF [1]): 3.63e-07 s⁻¹
- kon (human full-length VWF [1]): 55300 M⁻¹ s⁻¹
B24: 4-H3_H6_VL-par rep (antibody, human IgG1, kappa)
heavy chain: not shown
light chain: B13 light chain with I2Y, E3D, Y30A, H92Y, H94F, T96S, T97N, D98G
notes: also called 4-H3_H6 (hIgG1)

- Kd (human full-length VWF [1]): 0.318 nM
- koff (human full-length VWF [1]): 7.8e-06 s⁻¹
- kon (human full-length VWF [1]): 24500 M⁻¹ s⁻¹
B25: 1-A2_H2_VL-par (antibody, human IgG1, kappa, V domains shown)
VH: B2 VH
VL: B17 VL
notes: also called 1-A2_H2 (hIgG1)

- Kd (human full-length VWF [2]): 0.0824 nM
- koff (human full-length VWF [2]): 7.91e-06 s⁻¹
- kon (human full-length VWF [2]): 96000 M⁻¹ s⁻¹
B26: 1-D5_VH-par_L1 (antibody, human IgG1, kappa, V domains shown)
VH: QQQLVESGGRLVTPGTPLTLTCAVSGFSLNNYIMGWVRQAPGKGLEYIGIISTGGSTYYASWAKGRFTISRTSTTMDLKMTSLTTEDTATYFCARGGSSAGAGFNIWGPGTLVTVSS
VL: DIQMTQSPSSLSASVGDRVTITCQASQSINSGLAWYQQKPGKAPKRLIYKASTLASGVPSRFSGSGSGTDFTLTISSLQPEDFATYYCQSYHYISANGATFGGGTKVEIKT
notes: also called 1-D5_L1 (hIgG1K)

- Kd (human full-length VWF [2]): 0.05 nM
- koff (human full-length VWF [2]): 6.59e-06 s⁻¹
- kon (human full-length VWF [2]): 132000 M⁻¹ s⁻¹
B27: 1-D5_VH-par_L0 (antibody, human IgG1, kappa, V domains shown)
VH: B26 VH
VL: B26 VL with R46L
notes: also called 1-D5_L0 (hIgG1K)

- Kd (human full-length VWF [2]): 0.0223 nM
B28: 1-D5_VH-par_VL-par (antibody, human IgG1, kappa)
heavy chain: not shown
light chain: DIVMTQTPSSVSAAVGDTVTIQCQASQSINSGLAWYQQKPGQPPKRLIYKASTLASGVPSRFRGSGSGTDFTLTISDLECADAATYYCQSYHYISANGATFGGGTEVVVETVAAPSVFIFPPSDEQLKSGTASVVCLLNNFYPREAKVQWKVDNALQSGNSQESVTEQDSKDSTYSLSSTLTLSKADYEKHKVYACEVTHQGLSSPVTKSFNRGEC
notes: also called 1-D5_parental (hIgG1)
